The values that follow come from patent publication US20060270596A1 (CENTRE NATIONAL DE LA RECHERCHE SCIENTIFIQUE CNRS, published 2006).

Experiment [1] has as its target T1, human THAP1 (THanatos-Associated-Protein-1), full length (human, UniProt Q9NVV9 1-213).
T1 construct: these tags are not written into the chain; also called hTHAP1; THAP1 wild type
T1 sequence: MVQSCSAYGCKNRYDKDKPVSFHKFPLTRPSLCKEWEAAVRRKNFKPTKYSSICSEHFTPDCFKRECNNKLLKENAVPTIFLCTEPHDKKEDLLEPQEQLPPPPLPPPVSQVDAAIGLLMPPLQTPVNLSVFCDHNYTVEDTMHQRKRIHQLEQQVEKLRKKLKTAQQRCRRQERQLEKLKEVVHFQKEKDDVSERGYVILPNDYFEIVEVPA
Nature of the experiment: yeast two-hybrid.

Experiment [2] concerns the target T2, human chemokine SLC/CCL21, mature form (amino acids 24-134) (human, UniProt O00585 24-134).
T2 construct: GenBank NP-002980; Used as Gal4 fusion in two-hybrid and as 35S-labelled in vitro translation product in pull-downs; also called SLC/6Ckine; SLC/CCL21 wild type
T2 sequence: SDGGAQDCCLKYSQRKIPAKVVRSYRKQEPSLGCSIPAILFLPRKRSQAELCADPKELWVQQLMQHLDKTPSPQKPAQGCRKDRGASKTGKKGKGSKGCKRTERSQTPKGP
In words: yeast two-hybrid.

Experiment [3] addresses T3, GST-THAP3 181-284 (chemokine-binding domain of THAP3) (human, UniProt Q8WTV1 136-239).
T3 construct: not shown: GST (glutathione S-transferase of pGEX2T) and its linker at the N end
T3 sequence: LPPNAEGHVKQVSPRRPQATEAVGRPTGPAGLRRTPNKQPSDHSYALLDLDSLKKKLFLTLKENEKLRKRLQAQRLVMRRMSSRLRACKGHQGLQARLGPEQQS
In words: GST pull-down, 35S-labelled in vitro translated molecule.

Experiment [4] deals with T4, GST-THAP1 fusion protein (THAP1 amino acids 1-213) (human, UniProt Q5RCE4 1-213 (Pongo abelii entry)).
T4 construct: Expressed in E. coli, immobilized on glutathione sepharose; also called immobilized GST-THAP1; not shown: glutathione S-transferase encoded by vector pGEX-2T (Amersham Pharmacia Biotech)
T4 sequence: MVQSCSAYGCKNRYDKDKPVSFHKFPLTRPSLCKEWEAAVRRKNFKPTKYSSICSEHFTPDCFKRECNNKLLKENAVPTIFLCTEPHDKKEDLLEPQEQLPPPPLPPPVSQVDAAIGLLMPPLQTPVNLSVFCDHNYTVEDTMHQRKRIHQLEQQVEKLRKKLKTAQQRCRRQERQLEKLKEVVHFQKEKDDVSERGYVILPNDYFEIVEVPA
Nature of the experiment: GST pull-down: in vitro translated 35S-labelled protein on GST-THAP1 immobilised on glutathione sepharose, SDS-PAGE, fluorography. On the procedure: To confirm the results obtained in yeast, THAP1 mutants were also tested in in vitro GST pull down assays. Wild type THAP1 expressed as a GST-tagged fusion protein and immobilized on glutathione sepharose (as described in example 16), was incubated with radiolabeled in vitro translated THAP1 mutants. In vitro-translated THAP1 mutants were generated with the TNT-coupled reticulocyte lysate system (Promega, Madison, Wis., USA) using pGADT7-THAP1-C1, -C2, -C3, -N1, -N2 or -N3 vector as template. 25 μl of each ³⁵S-labelled THAP1 mutant was incubated with immobilized GST or GST-THAP1 wild-type protein overnight at 4° C., in the following binding buffer: 10 mM NaPO4 pH 8.0, 140 mM NaCl, 3 mM MgCl2, 1 mM dithiothreitol (DTT), 0.05% NP40, and 0.2 mM phenylmethyl sulphonyl fluoride (PMSF), 1 mM Na Vanadate, 50 mM β Glycerophosphate, 25 μg/ml chimotrypsine, 5 μg/ml aprotinin, 10 μg/ml Leupeptin. Beads were then washed 5 times in 1 ml binding buffer. Bound proteins were eluted with 2× Laemmli SDS-PAGE sample buffer, fractionated by 10% SDS-PAGE and visualized by fluorography using Amplify (Amersham Pharmacia Biotech). As expected, THAP1-C1, -C2, -C3, -and -N3 interacted with GST/THAP1 (FIG. 16B).

For experiment [5], the target named is T5, GST (glutathione S-transferase) control protein (UniProt P08515 1-218 = GST).
T5 construct: Negative control in GST pull-down assays; also called GST beads; GST alone
T5 sequence (P08515 whole entry): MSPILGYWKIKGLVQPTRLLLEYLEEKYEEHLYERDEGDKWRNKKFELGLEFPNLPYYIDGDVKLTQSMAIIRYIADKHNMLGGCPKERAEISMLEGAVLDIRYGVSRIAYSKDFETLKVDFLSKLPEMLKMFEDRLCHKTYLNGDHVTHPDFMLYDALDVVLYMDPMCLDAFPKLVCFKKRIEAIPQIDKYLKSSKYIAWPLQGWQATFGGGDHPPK
Nature of the experiment: GST pull-down, negative control: in vitro translated 35S-labelled chemokine or cytokine on GST alone immobilised on glutathione sepharose, SDS-PAGE, fluorography.

The next experiment addresses T6, chemokine CXCL8 (UniProt P10145 1-99, limits assumed).
T6 construct: 35S-labelled in vitro translation product
T6 sequence (looked up): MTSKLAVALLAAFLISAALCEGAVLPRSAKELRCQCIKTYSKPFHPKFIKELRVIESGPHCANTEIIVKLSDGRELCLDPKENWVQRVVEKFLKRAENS
Nature of the experiment: GST pull-down: in vitro translated 35S-labelled protein on the GST fusion immobilised on glutathione sepharose, SDS-PAGE, fluorography.

In experiment [6] the target is T1, human THAP1 …. In words: yeast two-hybrid, THAP1 bait.
Experiment [7] concerns the target T1, human THAP1 …. Nature of the experiment: yeast two-hybrid, chemokine bait and THAP1 prey.
The target in experiment [8] is T4, GST-THAP1 fusion protein (THAP1 amino …). In words: GST pull-down: in vitro translated 35S-labelled chemokine or cytokine on the GST fusion immobilised on glutathione sepharose, SDS-PAGE, fluorography.

B1: THAP1-N1 deletion mutant (amino acids 1-90) (other)
chain: MVQSCSAYGCKNRYDKDKPVSFHKFPLTRPSLCKEWEAAVRRKNFKPTKYSSICSEHFTPDCFKRECNNKLLKENAVPTIFLCTEPHDKK
notes: Gal4 fusion, in vitro translation product or GFP fusion according to assay; also called zinc finger domain of THAP1
Turning to B1, the binding result in experiment [1], in experiment [2], in experiment [3] and in experiment [4] was “no binding” in each case.

B2: human chemokine MIG/CXCL9, mature form (amino acids 23-125) (ligand)
chain: TPVVRKGRCSCISTNQGTIHLQSLKDLKQFAPSPSCEKIEIIATLKNGVQTCLNPDSADVKELIKKWEKQVSQKKKQKNGKKHQKKKVLKVRKSQRSRQKKTT
notes: Residues are printed against GenBank NM-002416; Gal4 fusion or in vitro translation product
Consider B2, for which, in experiment [5], the binding result was “no binding”.

B3: THAP1-C1 deletion mutant (amino acids 90-213) (other)
chain: KEDLLEPQEQLPPPPLPPPVSQVDAAIGLLMPPLQTPVNLSVFCDHNYTVEDTMHQRKRIHQLEQQVEKLRKKLKTAQQRCRRQERQLEKLKEVVHFQKEKDDVSERGYVILPNDYFEIVEVPA
notes: Gal4 fusion, in vitro translation product or GFP fusion according to assay; also called THAP1-CL; THAP1ΔTHAP
B3: in [1], the binding result is “binds”.

B4: THAP1-C2 deletion mutant (amino acids 120-213) (other)
chain: MPPLQTPVNLSVFCDHNYTVEDTMHQRKRIHQLEQQVEKLRKKLKTAQQRCRRQERQLEKLKEVVHFQKEKDDVSERGYVILPNDYFEIVEVPA
notes: Gal4 fusion, in vitro translation product or GFP fusion according to assay
Consider B4, for which the binding result in experiment [1] and in [2] was “binds” throughout.

B5: THAP1-N3 deletion mutant (amino acids 1-192) (other)
chain: MVQSCSAYGCKNRYDKDKPVSFHKFPLTRPSLCKEWEAAVRRKNFKPTKYSSICSEHFTPDCFKRECNNKLLKENAVPTIFLCTEPHDKKEDLLEPQEQLPPPPLPPPVSQVDAAIGLLMPPLQTPVNLSVFCDHNYTVEDTMHQRKRIHQLEQQVEKLRKKLKTAQQRCRRQERQLEKLKEVVHFQKEKDD
notes: as for B4
With B5, in [1], the binding result is reported as “binds”.

B6: GST-THAP2 133-228 (chemokine-binding domain of THAP2) (other)
chain: EAKKRIIKLEKEIASLRRKMKTCLQKERRATRRWIKATCLVKNLEANSVLPKGTSEHMLPTALSSLPLEDFKILEQDQQDKTLLSLNLKQTKSTFI
notes: Immobilized on glutathione sepharose; not shown: glutathione S-transferase encoded by vector pGEX2T (Amersham Biosciences)
For the molecule B6, the binding result in the experiment with chemokine CXCL8 is listed as “no binding”.

B7: THAP1ΔQRCRR mutant (deletion of residues 168-172) (other)
chain: MVQSCSAYGCKNRYDKDKPVSFHKFPLTRPSLCKEWEAAVRRKNFKPTKYSSICSEHFTPDCFKRECNNKLLKENAVPTIFLCTEPHDKKEDLLEPQEQLPPPPLPPPVSQVDAAIGLLMPPLQTPVNLSVFCDHNYTVEDTMHQRKRIHQLEQQVEKLRKKLKTAQQERQLEKLKEVVHFQKEKDDVSERGYVILPNDYFEIVEVPA
With B7, the binding result in [6] is given as “no binding”.

B8: human chemokine ELC/CCL19, mature form (amino acids 22-98) (ligand)
chain: GTNDAEDCCLSVTQKPIPGYIVRNFHYLLIKDGCRVPAVVFTTLRGRQLCAPPDQPWVERIIQRLQRTSAKMKRRSS
notes: Residues are printed against GenBank NM-006274; Gal4-BD fusion or in vitro translation product
As for B8, the values for the binding result in [7] and in experiment [5] were “binds” and “no binding”, respectively.

B9: human cytokine interferon gamma (amino acids 21-166) (ligand)
chain: CYCQDPYVKEAENLKKYFNAGHSDVADNGTLFLGILKNWKEESDRKIMQSQIVSFYFKLFKNFKDDQSIQKSVETIKEDMNVKFFNSNKKKRDDFEKLTNYSVTDLNVQRKAIHELIQVMAELSPAAKTGKRKRSQMLFQGRRASQ
notes: Residues are given against GenBank NM-000619; Negative control; also called IFNγ; IFN
Take B9: the binding result in experiment [1], in experiment [3], in [8] and in [5] was “no binding” in each case.

B10: THAP1-C3 deletion mutant (amino acids 143-213) (other)
chain: MHQRKRIHQLEQQVEKLRKKLKTAQQRCRRQERQLEKLKEVVHFQKEKDDVSERGYVILPNDYFEIVEVPA
notes: as for B4
As for B10, the binding result in [1] and in experiment [2] was “binds” each time.
